The record followed here is patent US11673947B2, “Target tissue-specific antigen-binding molecule” (Chugai Seiyaku Kabushiki Kaisha, priority 2012, dated 2023).

For assay [1], the target named is HSA (human serum albumin) (Homo sapiens, UniProt P02768). The assay can be described thus: Phage ELISA, binding to HSA in the presence or absence of adenosine and/or ATP. To be noted: with or without 10 mM adenosine and ATP. The protocol: Phage-containing culture supernatants were collected according to a conventional method (Methods Mol. Biol. (2002) 178, 133-145) from single colonies of E. coli obtained by the method described above. The collected culture supernatants were treated by ultrafiltration using NucleoFast 96 (MACHERY-NAGEL). 100 μl of the culture supernatants were added to each well of NucleoFast 96, and it was centrifuged (4500 g for 45 minutes) to remove flow through. After addition of 100 μl of H2O, the NucleoFast 96 was washed by centrifugation (4500 g for 30 minutes). Finally, 100 μl of TBS was added, and the NucleoFast 96 was allowed to stand for five minutes at room temperature. A phage suspension was collected from the supernatant in each well of the NucleoFast 96.
The purified phages, to which TBS or (adenosine+ATP)/TBS was added, were subjected to ELISA by the following procedure. A StreptaWell 96 microtiter plate (Roche) was coated overnight with 100 μl of TBS containing biotin-labeled antigen. […] Then, the developed color was assessed by measuring absorbance at 450 nm. […]
First, a StreptaWell 96 microtiter plate (Roche) was coated at room temperature for one hour or more with 100 μl of TBS containing a biotin-labeled antigen. […] Then, the developed color was assessed by measuring absorbance at 450 nm (FIGS. 25, 26, and 27). […]

The next assay addresses human IgA-Fc (Homo sapiens, UniProt P01876). The assay can be described thus: Phage ELISA, binding to human IgA-Fc in the presence or absence of adenosine and ATP (monovalent / multivalent display). The protocol: Culture supernatants containing phages were collected according to a conventional method (Methods Mol. Biol. (2002) 178, 133-145) from single colonies of E. coli obtained by the method described above. The collected culture supernatants were ultrafiltrated using NucleoFast 96 (MACHERY-NAGEL). 100 μl of the culture supernatants were added to each well of NucleoFast 96 and centrifuged (4500 g for 45 minutes) to remove flow-through. After 100 μl of H2O was added, the NucleoFast 96 was washed by centrifugation (4500 g for 30 minutes). Finally, 100 μl of TBS was added, and the NucleoFast 96 was allowed to stand for five minutes at room temperature. A phage solution contained in the supernatant in each well was collected.
Purified phages, to which TBS or (adenosine+ATP)/TBS was added, were subjected to ELISA by the following procedure. A StreptaWell 96 microtiter plate (Roche) was coated overnight with 100 μl of TBS containing a biotin-labeled antigen. After the antigen was removed from each well of the plate by washing with TBST, the wells were blocked with 250 μl of 2% skim milk/TBS for one hour or more. 2% skim milk/TBS was removed, and then the prepared, purified phages were added to each well. […] Then, the developed color was assessed by measuring absorbance at 450 nm.

Numbering of substitutions follows the chain as printed.

human IgA-Fc, sequence (P01876 with tags, fused parts or gaps isoform P01876-1): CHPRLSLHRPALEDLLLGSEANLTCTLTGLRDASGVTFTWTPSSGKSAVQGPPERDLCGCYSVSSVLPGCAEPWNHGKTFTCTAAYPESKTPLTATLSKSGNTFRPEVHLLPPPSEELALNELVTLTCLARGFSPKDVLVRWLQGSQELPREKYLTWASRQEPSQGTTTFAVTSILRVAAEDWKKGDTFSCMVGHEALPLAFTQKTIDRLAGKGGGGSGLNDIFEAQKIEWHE

B1: HSADSA1-6_020: clone with antigen-binding activity to HSA in the absence of ATP and adenosine (antibody, V domains shown)
VH: EVQLVESGGDLVKPGGGLRLSCAASGFTFSSHTMNWVRQAPGKGLEWVSSISSRSNHATYADSVKGRFTISRDNAKNSLYLQMNSLRAEDTAVYYCARFGKKGRYLWVFDYWGQGTLVTVSS
VL: QSALTQPPSASGSPGQTVTISCTGTSSDVGDYNYVSWYQQHPGKAPKLMIYYVSKRPSGVPDRFSGSKSGNTASLTVSGLQAEDEADYFCSLTTDSLNPVFGGGTKLTVL
For the molecule B1, the “antigen-binding activity to human serum albumin (HSA) in the absence of ATP and adenosine” value in assay [1] is listed as “had antigen-binding activity”.

B2: IADL3C5-4_048: clone binding human IgA-Fc in the presence of adenosine and ATP; SEQ ID NOs: 100 and 101 (antibody, listed as Homo sapiens, V domains shown)
VH: B1 VH with S31G, A58I, T59Y, F99Y, K101R, G103F, R104M, Y105M, L106N
VL: B1 VL with S27T, D31F, Y52Q, V53N, T93R, T94S, D95S, S96N, N98S, V100G
Take B2: the “antigen-binding activity in the presence of adenosine and ATP” value in the assay with human IgA-Fc was “exhibits antigen-binding activity”.
